Source: PMC11987601
Where “and” joins values, the source holds several entries; their conditions need not be identical. Equal values may be shown once.

Key:
[1] = biological target: His6-SeFtsZ (Spiroplasma eriocheiris FtsZ) (Spiroplasma eriocheiris)
[2] = biological target: His6-SeSepF (Spiroplasma eriocheiris SepF) (Spiroplasma eriocheiris); assay: BLI; as a1, in the presence of GTP
[3] = biological target: His6-SeSepF (Spiroplasma eriocheiris SepF) (Spiroplasma eriocheiris); assay: BLI; His6-SeSepF immobilised on Ni-NTA biosensor tips (10 ug/ml), SeFtsZ or SeFtsZ L272E as analyte (0-100 ug/ml); Octet N1; 50 mM Tris-HCl pH 7.4, 100 mM KCl, 10 mM MgCl2, 0.02% Tween-20; no nucleotide (apo)

Chain of His6-SeSepF (Spiroplasma eriocheiris SepF) (Spiroplasma eriocheiris) (partner, as listed by the source): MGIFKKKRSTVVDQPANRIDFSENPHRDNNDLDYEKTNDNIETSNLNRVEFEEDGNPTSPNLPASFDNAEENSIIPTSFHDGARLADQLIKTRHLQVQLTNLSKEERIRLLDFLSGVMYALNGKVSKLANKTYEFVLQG

SeFtsZ retrieved from the pellet fraction with GTP after mixing with SeSepF (sedimentation assay of polymerization; 16% without SeSepF) [1]	Substance	Kd [2]	Kd [3]
28%	His6-SeSepF (Spiroplasma eriocheiris SepF) (natural protein)	–	–
–	SeFtsZ L272E mutant (from UniProt A0A0H3XMR3 1-411) (natural protein)	700 nM	980 nM
–	Spiroplasma eriocheiris FtsZ, His-tag removed (from UniProt A0A0H3XMR3 1-411) (natural protein)	53900 nM	1040 nM and 1130 nM
